Measured values as given in the supplement of paper PMC12764529.

experiment: folding stability dG unfold (combined trypsin and chymotrypsin); higher = more stable
Protocol: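 Folding stability of de novo designed mini-proteins (<80 aa, no Cys; designed by TrROS, TrMRF, ProteinMPNN and the joint model) was measured by cDNA display proteolysis with trypsin and chymotrypsin. Each protease was used at 11 concentrations in a threefold dilution series plus a no-protease condition. K50 was inferred by Bayesian fitting of sequencing counts, and dG unfold was derived against a sequence-predicted unfolded-state K50 (Tsuboyama et al. method). Sequences shown include variable-length N-terminal GS-type padding (SAGGSAGG...) inside a display construct carrying a PA tag. Rows were kept only if the AF2 dimer inter-PAE was >15, to exclude likely homo-oligomers.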

“DFLELPGGWKVTEILEKKRLSDGTVEIKAVVKDPNNPVETEIDVKIPIPEVPEVPVEVRLIPGTGELIGILS [r1_411_JUSTAS]” and “DMDFKVEDIKVDPDDGKVKIEMPIPNPNMPIAIFAPNGKIKDVKWEHYKEDGRMKIEIPVKSPDEVRAFIFS [r1_138_TrROS]” cannot be ordered by “folding stability dG unfold” value: < -1 kcal/mol for the first, < -1 kcal/mol for the second.

“DNMDMEPEGYDPDNGHYEWEMRTDNQWTEMTMRPKPRIPIPLEELKNIADYLADQNPDNKEKAEKIAEKLAS [r1_330_TrROS]” and “KTYYLKAENAPFEEIVEKAREALEADPEEGAEIVIEVPGNPELLEKLDFDEIIPYDIPERPLYIVRAKAPPS [r1_467_TrMRF]” cannot be ordered by “folding stability dG unfold” value: < -1 kcal/mol for the first, < -1 kcal/mol for the second.

“MRRTLETDEIRRLEIELRPAPGRTAVLDAVVELRDGTPVPLPFPLRLESGRLDPATVERAEREAVEEALARS [r1_124_TrMRF]” and “MTIEIEVTAEDLKEGKPLTAEELAKKLAEELGLEEVEVKVEVKEDGTVKITIEVKPKPPPEVVLPEELKKKS [r1_168_TrROS_Hall]” cannot be ordered by “folding stability dG unfold” value: < -1 kcal/mol for the first, < -1 kcal/mol for the second.

“MTRTIVAEDMSIEEVKERIEALGAAEPEKGTTVVVEYPGNPEELKKLPIDKIEPREEPERESLVATKTFPAS [r1_467_JUSTAS]” and “MVISPALLREARRAGISDEFLKKAGDVIIPSEVANPEEVKELLAHPGVKKVYPVPPEDPEKLAAAKVVLPGS [r1_248_TrMRF]” cannot be ordered by “folding stability dG unfold” value: < -1 kcal/mol for the first, < -1 kcal/mol for the second.

“NWKILEEEPNPDNGKRVIVIEHEPDPENGQMNMPIELFDPKKGKPRRIPVRMDSPETMIDEIKDQLPPDLIS [r1_156_TrROS]” and “SAGAAKEVFHETFPHPAGGPVELARNPGLDWVVLYNAGTGEPTVVPVAADETLVFPAAPGGASTFAVTSAGG [r19_118_TrMRF]” cannot be ordered by “folding stability dG unfold” value: < -1 kcal/mol for the first, < -1 kcal/mol for the second.

“SAGAPVVEKKRTIPSPLGAPAYLVFVPEEDRIVFTRPGSGEPVELSVPPDSEVEVPAPPSGSLTYRWESAGG [r19_118_JUSTAS]” and “SAGASLAPGESAAFTVTTTTTTTESLPLPDGTTVTTTSTTTTTTAHTVTFPAVPVVTMPPDATDPAVRASAG [r5_770_JUSTAS]” cannot be ordered by “folding stability dG unfold” value: < -1 kcal/mol for the first, < -1 kcal/mol for the second.

“SAGFEKIAEKLGVKPENLEIKDIEDKPVTVPDPKTGKPKERLVPVLYLEFYDPEVGKKVDAEIPLAEVASAG [r5_517_TrMRF]” and “SAGGATTPVTVPTTSEEEVEAIIEELNKEGLSDLIPKGGKPIPPPDSLRLVPLVITTTPGSGKTTVTLSAGG [r13_174_JUSTAS]” cannot be ordered by “folding stability dG unfold” value: < -1 kcal/mol for the first, < -1 kcal/mol for the second.

“SAGGDNVKLRFYDPNGRLKIDEINPENGNIKVEYEGPGKPRERTVDADPDEAIDEIADNFPFPLEIEKSAGG [r13_141_TrROS]” and “SAGGFKPRTINIPAKPGALRNILNDLREKSPNYMVHVTNPDKGKPRHWPLDDLKDMPGPFEFRVMKMPKSAG [r5_437_TrROS]” cannot be ordered by “folding stability dG unfold” value: < -1 kcal/mol for the first, < -1 kcal/mol for the second.

“SAGGGMDTPLYRTLPPPPVVEKREVWLSGPSKEEAEKKAKEVEEEFKKEGLEVEVKIIPAEEAEKLSSAGGS [r8_210_JUSTAS]” and “SAGGGMKKYTESTVPLPPGRPDVVERLRAEYPNLEVEREGPADTGTLPTTVKVPAPDGSPLASIELGSAGGS [r8_267_JUSTAS]” cannot be ordered by “folding stability dG unfold” value: < -1 kcal/mol for the first, < -1 kcal/mol for the second.

“SAGGGMMVNLKFESPTSSSTVPLPVVEIRRLPSPEYEEVVVPDGTRYLFNPKTNTLLEEKEVPPLEELSAGG [r13_636_JUSTAS]” and “SAGGGSMVETRTLEVEEVEDGTVTLSRTLYPGGLVRLTRTRVPPADPSVAEEVETELVYVSPEEAAASAGGS [r16_161_JUSTAS]” cannot be ordered by “folding stability dG unfold” value: < -1 kcal/mol for the first, < -1 kcal/mol for the second.

“SAGGGSSMPRRRALPDGTALETTLGDSVATVRATRYVGDRPLETAERVLPDVPPDVDAEVDFDLPPGSAGGS [r8_155_JUSTAS]” and “SAGGIPLKEIKEMIENDPGETWTAQIYRMPPGPNGQMQQQTIEFPIKDPEDALDNLPPGYMVHVEPRSAGGS [r16_116_TrROS]” cannot be ordered by “folding stability dG unfold” value: < -1 kcal/mol for the first, < -1 kcal/mol for the second.

“SAGGIREIADELGMPPGDKVTIDIERPRDGKPQTQEIEFPPDNVEDILDQMGIPPDQMKITKLKVDKDSAGG [r13_681_TrROS]” and “SAGGITLEELRGMPPEQLADWLVQEAQEQNKKEGNPNRPVTVEFEYGDQPLKIEITPNGKIEKIELDSAGGS [r16_431_TrROS]” cannot be ordered by “folding stability dG unfold” value: < -1 kcal/mol for the first, < -1 kcal/mol for the second.

Compared with “SAGGKAELAANPGVVRVEVELVDPSGPVALPTREYLYPEGDPAALRAAIEAEIPADLAVARVTFTRLGSAGG [r13_849_JUSTAS]”, “SAGGKITITLPNGAKIEIEEEEVEVDGKTYLVFKAKITNKDGSKYLITVVIDKKTKEIVSISIEKLPSAGGS [r8_492_TrROS_Hall]” is higher in “folding stability dG unfold” value: < -1 kcal/mol for the first, > 6 kcal/mol for the second.

“SAGGKTVEIPIPGPLTIETAKDLASKLAEEGHEDVPIKITMWHWKREPNGKPERHRHTHTYKLKVPKSAGGS [r16_44_TrROS]” and “SAGGMDEEELRELLAEDDATVLTEDPDGLLVAFTLPDGTARVFPVPSRERLDRLIAEVPDATVTTLPASAGG [r13_600_JUSTAS]” cannot be ordered by “folding stability dG unfold” value: < -1 kcal/mol for the first, < -1 kcal/mol for the second.

“SAGGMITVLEEEVEERGDELVVTRLVRVSSEEDVEALANDGVPDTAREVRRLPDGTLLAELTETVPPPSAGG [r13_506_JUSTAS]” and “SAGGMKKRVEIPEELKKAYPDLVVEDQEVPEDSVDVTVRLPTADLKVPQVVLSPDGNPLRSFTLTSSPSAGG [r13_129_JUSTAS]” cannot be ordered by “folding stability dG unfold” value: < -1 kcal/mol for the first, < -1 kcal/mol for the second.

“SAGGMKTIKRKSKFIKPGKGLSIDRTTELLPGGEVLEPLTFKNPKNGEKIKSFTIRIDPNGNETVENSAGGS [r16_239_JUSTAS]” and “SAGGMRVDYKSGKVIPEKTITIERTFSPEVVKTEEDAIELAKQEAEEAGLKDIDLKVELEGDKITVVGSAGG [r13_130_JUSTAS]” cannot be ordered by “folding stability dG unfold” value: < -1 kcal/mol for the first, < -1 kcal/mol for the second.

“SAGGMVETTETVVEPGRIRVERRVTLPDGTEVEEVEEVPPAAGGVWEVRSRVRRGEGEEEVARREVAPSAGG [r13_728_JUSTAS]” and “SAGGMVTIEITDIPEDDPEKAIETAKELVEKIKKEGPPLKVKIKGNTPVFEEVAAELKKLGVETDLESAGGS [r16_450_JUSTAS]” cannot be ordered by “folding stability dG unfold” value: < -1 kcal/mol for the first, < -1 kcal/mol for the second.

“SAGGNAEEIRDITRDIAEKHGGEVKDVEVEPEPNGRKELTFRMKEDPNTRIKITVDNNEIKITSIQPSAGGS [r8_432_TrROS]” and “SAGGPAEFPEGPGVVVGYTYPPDGKPAKWAIPFPDATPEEARERLAKFAEALPIPGAKVVIDDIKPGPSAGG [r13_29_TrMRF]” cannot be ordered by “folding stability dG unfold” value: < -1 kcal/mol for the first, < -1 kcal/mol for the second.

“SAGGPAEVKIPIMKMEPPKPERVYDPDDGQERWKMEHQMRMEMIPITIRADDNPEEANDIANDFGITSAGGS [r16_467_TrROS]” and “SAGGPDDYPIRIAVYPPDGEIKEEITIPNNWTIKYFPNDDPRIMIQDPGNGETVPVKTPEDIKDLIQSAGGS [r8_232_TrROS]” cannot be ordered by “folding stability dG unfold” value: < -1 kcal/mol for the first, < -1 kcal/mol for the second.

“SAGGPNKKIKIVMDPDDPNMPMSEIANFMQKEGFEPVEMVPADNLPPEKAREEAEEEGKPVIEIPFNSAGGS [r16_94_TrROS]” and “SAGGPVYFRIKVEQRRPDPENGEPERREQTVSIPFEYDPDNGMPADEFAEELAKTLPPGIREVEIEPFSAGG [r13_335_TrROS]” cannot be ordered by “folding stability dG unfold” value: < -1 kcal/mol for the first, < -1 kcal/mol for the second.

“SAGGSAFKVPPGNIKEEEDFKFKFPDGNNMKIKIIRYPGKKRLMMENPGNNEPQTMPVEDLKEMLQSAGGSA [r15_329_TrROS]” and “SAGGSAGGEKTASFKVKGNLVAKGVTTFYSPTSDEYTIETEIEKVPPGPKPEITPEEIAKNYLLSAGGSAGG [r6_148_JUSTAS]” cannot be ordered by “folding stability dG unfold” value: < -1 kcal/mol for the first, < -1 kcal/mol for the second.

“SAGGSAGGGKVPKPVPGPLTILFDVAEDELPPEEIRKLFPDAKVYRFPKGLRVTVPVNGKLVPGSAGGSAGG [r6_738_TrMRF]” and “SAGGSAGGGMITVPLSEEISMANLPEEERAAGEELGPGSVIRKLLEIKKYPVKPFRFIEKDKILSAGGSAGG [r6_547_JUSTAS]” cannot be ordered by “folding stability dG unfold” value: < -1 kcal/mol for the first, < -1 kcal/mol for the second.

“SAGGSAGGMELVSEERLPDGSRRFTVRVDPDKSLSLTLPDAGEPVAATVTETFPEEGLVTVELASAGGSAGG [r6_177_JUSTAS]” and “SAGGSAGGPPMEPIPFRVRVDEVEHDPPNGNVVITIKDGDKNPHTINIPPEMAKNMPIEPGDELSAGGSAGG [r6_915_TrROS]” cannot be ordered by “folding stability dG unfold” value: < -1 kcal/mol for the first, < -1 kcal/mol for the second.

“SAGGSAGGQKIKIDDVQKNPGNGNYYVRIRPPGKPYEYQFPPGDSADDIADELELNGIDDIEVYSAGGSAGG [r6_83_TrROS]” and “SAGGSAGGRIRDPDGNPFKIKKVEPQPSPNGQPMIKFRYPDNGKEHTIPRDNLPPWLPDNAKPVSAGGSAGG [r6_371_TrROS]” cannot be ordered by “folding stability dG unfold” value: < -1 kcal/mol for the first, < -1 kcal/mol for the second.

“SAGGSAGGRVITLKEEELKKLIEEGKVDSVDVEKLPDGTVKAKPIIKEKEELSPKNKEKIFELKSAGGSAGG [r6_279_JUSTAS]” and “SAGGSAGGSAAPIPPDQSATSLTLLPDGTVRKTTTTYPPPEFVTTTTTTIPISPEEGAAAGSAGGSAGGSAG [r3_437_JUSTAS]” cannot be ordered by “folding stability dG unfold” value: < -1 kcal/mol for the first, < -1 kcal/mol for the second.

“SAGGSAGGSAEPDPSSPEPYEVLEVVPRTIVSRVEQPGNPQLLRQTVDVVIIKNPSNGLLDSAGGSAGGSAG [r3_391_JUSTAS]” and “SAGGSAGGSAGAPDEPIQITMRLKYPDGQKREHNTPFPPGKDIEIKNMPPGAKIENIEITSAGGSAGGSAGG [r11_181_TrROS]” cannot be ordered by “folding stability dG unfold” value: < -1 kcal/mol for the first, < -1 kcal/mol for the second.

For “SAGGSAGGSAGDLGLEDDTFILKATYPDGTPATIPLKKSEISKISKDNIKSIEFYPKSKLSAGGSAGGSAGG [r11_779_JUSTAS]”, the “folding stability dG unfold” value was < -1 kcal/mol.
